Assay [1] deals with T1, FcγRIIa H (human, UniProt P12318 34-217).
T1 construct: extracellular domain; also called FcgRIIa H; 2aH; not shown: His tag attached to the C terminus
T1 sequence (looked up): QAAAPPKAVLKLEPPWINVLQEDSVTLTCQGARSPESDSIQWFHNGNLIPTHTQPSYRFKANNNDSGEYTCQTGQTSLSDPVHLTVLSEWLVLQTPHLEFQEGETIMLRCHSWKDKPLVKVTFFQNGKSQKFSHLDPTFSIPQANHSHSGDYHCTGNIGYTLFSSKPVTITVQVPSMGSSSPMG
As to the kind of experiment: SPR; He/Con for FcγRIIa H divided by He/Con for FcγRIIb. In general terms: Surface plasmon resonance follows binding to a sensor surface in real time, without labels.

Assay [2] has as its target T1, FcγRIIa H. Description: SPR (Biacore), antibody captured on antigen peptide chip, FcγR as analyte; relative binding activity. The protocol: (§1) The heterodimerized antibodies He Abs in which one of the H chains was introduced with an alteration were assayed for their binding activities to each activating FcγR and inhibitory FcγR according to the method described in Example 4. […] The activating FcγRs in FIGS. 26, 27, 28, and 29 are FcγRIa, FcγRIIa (R), FcγRIIa (H), and FcγRIIIa, respectively.
(§2) Analysis of interaction between objective antibody and the FcγR was carried out using Biacore T100 (GE Healthcare). HBS-EP+ (GE Healthcare) was used as the running buffer, and the measurement temperature was set to 25° C. Chips produced by immobilizing the antigen peptide by the amine coupling method to a Series S Sencor Chip CM5 (GE Healthcare), or alternatively, chips produced by allowing preliminarily biotinylated antigen peptides to interact with and immobilize onto a Series S Sensor Chip SA (certified) (GE Healthcare) were used. Antibodies of interest were captured onto an antigen peptide-immobilized chip, and allowed to interact to each FcγR diluted with running buffer. To regenerate and repeatedly use the chip, the antibodies captured on the chip were washed off by reacting 10 mM glycine-HCl, pH 1.5.

Another assay concerns the target T2, FcγRIIb (human, UniProt P31994 43-217).
T2 construct: extracellular domain; also called FcgRIIb; 2b; not shown: His tag attached to the C terminus
T2 sequence (looked up): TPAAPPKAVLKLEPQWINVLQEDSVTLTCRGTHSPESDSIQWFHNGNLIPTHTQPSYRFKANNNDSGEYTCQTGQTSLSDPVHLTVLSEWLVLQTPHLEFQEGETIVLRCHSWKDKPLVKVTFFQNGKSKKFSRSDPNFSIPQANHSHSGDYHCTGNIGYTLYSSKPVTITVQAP
Described as above. How it is done:
as §1, §2

For assay [3], the target named is T3, FcγRIa extracellular domain with C-terminal His tag (human, UniProt P12314 16-292).
T3 construct: extracellular domain; soluble analyte in Biacore; also called FcgRI; not shown: His tag at the C terminus
T3 sequence (P12314 16-292): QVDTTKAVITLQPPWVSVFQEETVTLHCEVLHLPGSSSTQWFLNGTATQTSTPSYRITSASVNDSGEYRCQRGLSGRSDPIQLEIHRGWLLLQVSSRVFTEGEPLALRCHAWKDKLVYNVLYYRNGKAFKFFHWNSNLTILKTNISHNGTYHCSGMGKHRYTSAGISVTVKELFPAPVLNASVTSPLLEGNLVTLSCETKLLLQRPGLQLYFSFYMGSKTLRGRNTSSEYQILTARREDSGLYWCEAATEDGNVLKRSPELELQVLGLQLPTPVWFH
As to the kind of experiment: SPR; He/Con_1a divided by He/Con_2b (FcγRIa against FcγRIIb). How it is done:
as §1, §2

Assay [4] addresses T4, FcγRIIb extracellular domain with C-terminal His tag (human, UniProt P31994 43-217).
T4 construct: extracellular domain; soluble analyte in Biacore; also called FcgRIIb; not shown: His tag at the C terminus
T4 sequence (looked up): T2 sequence (looked up)
Description: SPR, binding relative to GpH7-A5/GpH7-B3/GpL16-k0 = 100.

The target in assay [5] is T3, FcγRIa extracellular domain with …. The assay is described as above.

Results on 15 molecules are retold here after patent US20150344570A1 (published 2015).

B1: GpH7-A5/GpH7-B3 variant D265_14T/GpL16-k0 (antibody, human IgG1, kappa)
heavy 1: not shown
heavy 2: not shown
light: DIVMTQSPLSLPVTPGEPASISCQASESLVHSNRNTYLHWYLQKPGQSPQLLIYKVSNRFSGVPDRFSGSGSGTDFTLKISRVEAEDVGVYYCSQNTHVPPTFGQGTKVEIERTVAAPSVFIFPPSDEQLKSGTASVVCLLNNFYPREAKVQWKVDNALQSGNSQESVTEQDSKDSTYSLSSTLTLSKADYEKHKVYACEVTHQGLSSPVTKSFNRGEC
notes: Heterodimerized anti-glypican-3 IgG1; mutation in one H chain only; also called He Ab
In the case of B1, the “He_2aH/2b (IIaH/IIb)” value in the assay with FcγRIIa H [1] is 1.5 ratio. The He/Con_2aH with FcγRIIa H [2] was 24.1 % of GpH7-A5/GpH7-B3/GpL16-k0 (=100). The He/Con_2b with FcγRIIb was 16 % of GpH7-A5/GpH7-B3/GpL16-k0 (=100).

B2: GpH7-A5/GpH7-B3 variant D265_03V/GpL16-k0 (antibody, human IgG1, kappa)
heavy 1: not shown
heavy 2: not shown
light: B1 light
notes: as for B1
As for B2, in the assay with FcγRIIa H [1], the “He_2aH/2b (IIaH/IIb)” value amounted to 1.42 ratio. In addition, the He/Con_2aH in the assay with FcγRIIa H [2] was 4.6 % of GpH7-A5/GpH7-B3/GpL16-k0 (=100). Moreover, the He/Con_2b in the assay with FcγRIIb was 3.2 % of GpH7-A5/GpH7-B3/GpL16-k0 (=100).

B3: GpH7-A5/GpH7-B3 variant P271_20W/GpL16-k0 (antibody, human IgG1, kappa)
heavy 1: not shown
heavy 2: not shown
light: B1 light
notes: change in the GpH7-B3 H chain only; also called He Ab
With B3, the “He_1a/2b (Ia/IIb)” value in assay [3] worked out at 1.77 ratio. In assay [4], the He/Con_2b is 58.1 % of control. Further, the He/Con_1a in assay [5] was 103 % of control.

B4: GpH7-A5/GpH7-B3 variant P271_07I/GpL16-k0 (antibody, human IgG1, kappa)
heavy 1: not shown
heavy 2: not shown
light: B1 light
notes: as for B3
Regarding B4, the “He_1a/2b (Ia/IIb)” value in assay [3] turned out to be 1.33 ratio. Also, the He/Con_2b in assay [4] is 76.8 % of control. For the same molecule, in assay [5], the He/Con_1a is 102 % of control.

B5: GpH7-A5/GpH7-B3 variant D265_07I/GpL16-k0 (antibody, human IgG1, kappa)
heavy 1: not shown
heavy 2: not shown
light: B1 light
notes: as for B1
Regarding B5, the “He_2aH/2b (IIaH/IIb)” value with FcγRIIa H [1] stood at 2.35 ratio. Further, the He/Con_2aH with FcγRIIa H [2] was 3.1 % of GpH7-A5/GpH7-B3/GpL16-k0 (=100). The He/Con_2b in the assay with FcγRIIb is 1.3 % of GpH7-A5/GpH7-B3/GpL16-k0 (=100).

B6: GpH7-A5/GpH7-B3 variant D265_04F/GpL16-k0 (antibody, human IgG1, kappa)
heavy 1: not shown
heavy 2: not shown
light: B1 light
notes: as for B1
For B6, the “He_2aH/2b (IIaH/IIb)” value with FcγRIIa H [1] amounted to 1.28 ratio. In the assay with FcγRIIa H [2], the He/Con_2aH is 4.1 % of GpH7-A5/GpH7-B3/GpL16-k0 (=100). Moreover, the He/Con_2b in the assay with FcγRIIb is 3.2 % of GpH7-A5/GpH7-B3/GpL16-k0 (=100).

B7: GpH7-A5/GpH7-B3 variant P271_04F/GpL16-k0 (antibody, human IgG1, kappa)
heavy 1: not shown
heavy 2: not shown
light: B1 light
notes: as for B3
As for B7, the “He_1a/2b (Ia/IIb)” value in assay [3] was 1.71 ratio. For the same molecule, the He/Con_2b in assay [4] was 59.5 % of control. Moreover, the He/Con_1a in assay [5] was 102 % of control.

B8: GpH7-A5/GpH7-B3 variant D265_06M/GpL16-k0 (antibody, human IgG1, kappa)
heavy 1: not shown
heavy 2: not shown
light: B1 light
notes: as for B1
B8: the “He_2aH/2b (IIaH/IIb)” value with FcγRIIa H [1] worked out at 1.35 ratio. Besides, the He/Con_2aH with FcγRIIa H [2] is 13.5 % of GpH7-A5/GpH7-B3/GpL16-k0 (=100). The He/Con_2b with FcγRIIb is 10 % of GpH7-A5/GpH7-B3/GpL16-k0 (=100).

B9: GpH7-A5/GpH7-B3 variant G236_20W/GpL16-k0 (antibody, human IgG1, kappa)
heavy 1: not shown
heavy 2: not shown
light: B1 light
notes: Heterodimerized anti-glypican-3 IgG1; mutation in one H chain only; also called He Ab; GpH7-A5/GpH7-B3-03-20W/GpL16-k0
Turning to B9, the “He_2aH/2b (IIaH/IIb)” value in the assay with FcγRIIa H [1] amounted to 2.52 ratio. Besides, the He/Con_2aH with FcγRIIa H [2] was 147 % of GpH7-A5/GpH7-B3/GpL16-k0 (=100). For the same molecule, the He/Con_2b with FcγRIIb is 58.2 % of GpH7-A5/GpH7-B3/GpL16-k0 (=100).

B10: GpH7-A5/GpH7-B3 variant D265_19Q/GpL16-k0 (antibody, human IgG1, kappa)
heavy 1: not shown
heavy 2: not shown
light: B1 light
notes: as for B1
As for B10, the “He_2aH/2b (IIaH/IIb)” value in the assay with FcγRIIa H [1] turned out to be 1.43 ratio. For the same molecule, the He/Con_2aH in the assay with FcγRIIa H [2] is 47.7 % of GpH7-A5/GpH7-B3/GpL16-k0 (=100). In addition, the He/Con_2b with FcγRIIb is 33.4 % of GpH7-A5/GpH7-B3/GpL16-k0 (=100).

B11: GpH7-A5/GpH7-B3 variant P271_16H/GpL16-k0 (antibody, human IgG1, kappa)
heavy 1: not shown
heavy 2: not shown
light: B1 light
notes: as for B3
B11: the “He_1a/2b (Ia/IIb)” value in assay [3] came out at 1.5 ratio. The He/Con_2b in assay [4] was 67.9 % of control. Further, the He/Con_1a in assay [5] was 102 % of control.

B12: GpH7-A5/GpH7-B3 variant P271_15Y/GpL16-k0 (antibody, human IgG1, kappa)
heavy 1: not shown
heavy 2: not shown
light: B1 light
notes: as for B3
Take B12: in assay [3], the “He_1a/2b (Ia/IIb)” value is 1.97 ratio. In addition, the He/Con_2b in assay [4] was 52.3 % of control. Further, in assay [5], the He/Con_1a is 103 % of control.

B13: GpH7-A5/GpH7-B3 variant D265_18N/GpL16-k0 (antibody, human IgG1, kappa)
heavy 1: not shown
heavy 2: not shown
light: B1 light
notes: as for B1
With B13, the “He_2aH/2b (IIaH/IIb)” value in the assay with FcγRIIa H [1] turned out to be 2.01 ratio. Further, the He/Con_2aH with FcγRIIa H [2] is 12.4 % of GpH7-A5/GpH7-B3/GpL16-k0 (=100). In addition, in the assay with FcγRIIb, the He/Con_2b was 6.1 % of GpH7-A5/GpH7-B3/GpL16-k0 (=100).

B14: GpH7-A5/GpH7-B3 variant H268_04F/GpL16-k0 (antibody, human IgG1, kappa)
heavy 1: not shown
heavy 2: not shown
light: B1 light
notes: as for B1
On to B14, for which the “He_2aH/2b (IIaH/IIb)” value with FcγRIIa H [1] stood at 1.24 ratio. In addition, the He/Con_2aH with FcγRIIa H [2] is 111 % of GpH7-A5/GpH7-B3/GpL16-k0 (=100). The He/Con_2b in the assay with FcγRIIb was 89.6 % of GpH7-A5/GpH7-B3/GpL16-k0 (=100).

B15: GpH7-A5/GpH7-B3 variant H268_06M/GpL16-k0 (antibody, human IgG1, kappa)
heavy 1: not shown
heavy 2: not shown
light: B1 light
notes: as for B1
As to B15, the “He_2aH/2b (IIaH/IIb)” value in the assay with FcγRIIa H [1] was found to be 1.29 ratio. The He/Con_2aH with FcγRIIa H [2] was 84.8 % of GpH7-A5/GpH7-B3/GpL16-k0 (=100). Moreover, the He/Con_2b with FcγRIIb was 65.7 % of GpH7-A5/GpH7-B3/GpL16-k0 (=100).
